Data as given in article PMC3595323 (Proteins, 2013).

Target: the molecule itself
Assay: crystal structure

B1: Thermoplasma acidophilum nucleoside kinase Ta0880, crystallization construct (E112A, K113A, K115A) (enzyme, UniProt Q9HJT3 1-287, looked up)
chain: MRFLAYFGHLNIDVLISVDSIPREGSVNVKDLRPRFGGTAGNFAIVAQKFRIPFDLYSAVGMKTHREYLAMIESMGINTGHVEKFEDESGPICYIATDGKKQVSFMHQGAMAAWAPQLADEYEYVHFSTGPNYLDMAKSIRSKIIFDPSQEIHKYSKDELKKFHEISYMSIFNDHEYRVFREMTGLSSPKVTTIVTNGERGSSLFMDGKKYDFPAIPSSGDTVGAGDSFRAGLYLALYNRRSIEKGMIYGTIIAHHVIDDGIENFSLNMEDLERETENYRRMFTKRS
modifications: selenomethionine (expressed in selenomethionine-containing medium with suppression of normal methionine synthesis)
binding result: binds
